Changes are numbered by the printed parent chain.
How the values were obtained:
Assay in all cases: FRET or BRET; Clover fusion protein constant at 50 nM, mRuby2 fusion of antizyme titrated; TBS pH 7.4 + 0.15% Tween-20, 1 hour at room temperature; plate reader, fit of donor quenching
Conditions in all cases: both partners purified
[1] = molecular target: T1, Clover-AZIN (antizyme inhibitor with an N-terminal Clover tag) (human, UniProt O14977 1-448)
T1 construct: The vector has a TEV protease site after the His tag; also called hAZIN1; source: bacterial expression vector (pBAD), purified recombinant protein; not shown: Clover, N-terminal, kept
T1 sequence (looked up): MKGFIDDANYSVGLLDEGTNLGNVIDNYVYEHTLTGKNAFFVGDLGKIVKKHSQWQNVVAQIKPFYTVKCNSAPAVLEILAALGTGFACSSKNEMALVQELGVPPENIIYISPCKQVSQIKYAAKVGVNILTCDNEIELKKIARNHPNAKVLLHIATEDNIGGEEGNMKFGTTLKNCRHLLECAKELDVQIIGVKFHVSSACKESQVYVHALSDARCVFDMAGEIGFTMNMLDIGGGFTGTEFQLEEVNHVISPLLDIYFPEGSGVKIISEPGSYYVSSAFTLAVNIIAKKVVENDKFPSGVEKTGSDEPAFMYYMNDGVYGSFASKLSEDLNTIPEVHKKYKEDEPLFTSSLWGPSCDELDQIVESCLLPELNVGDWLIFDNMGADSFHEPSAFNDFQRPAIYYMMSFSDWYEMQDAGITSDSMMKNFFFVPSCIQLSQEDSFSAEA

[2] = molecular target: T2, ODC-Clover fusion protein (ornithine decarboxylase), wild type (human, UniProt P11926 1-461)
T2 construct: human ornithine decarboxylase (hODC1); The legend says 'ODC-Clover fusion proteins'; the methods speak of N-terminal fluorescent fusion proteins of hODC1, so Clover is probably N-terminal; also called hODC1; source: bacterial expression vector (pBAD), purified recombinant protein
T2 sequence (looked up): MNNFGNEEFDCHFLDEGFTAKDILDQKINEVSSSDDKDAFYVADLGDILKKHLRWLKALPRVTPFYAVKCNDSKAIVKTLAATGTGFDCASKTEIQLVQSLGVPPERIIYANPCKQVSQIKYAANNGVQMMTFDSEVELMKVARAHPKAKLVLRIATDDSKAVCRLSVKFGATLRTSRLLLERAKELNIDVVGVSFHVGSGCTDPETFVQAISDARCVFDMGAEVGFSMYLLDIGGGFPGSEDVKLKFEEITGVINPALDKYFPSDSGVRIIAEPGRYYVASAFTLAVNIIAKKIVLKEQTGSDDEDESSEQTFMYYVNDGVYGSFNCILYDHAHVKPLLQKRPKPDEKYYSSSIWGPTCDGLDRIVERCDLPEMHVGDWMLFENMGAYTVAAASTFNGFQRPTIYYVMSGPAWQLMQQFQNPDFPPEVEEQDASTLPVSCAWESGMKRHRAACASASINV

[3] = molecular target: T3, ODC-N327A (Clover fusion protein) (human, UniProt P11926 1-461, N327A)
T3 construct: human ornithine decarboxylase (hODC1) with N327A; As m5 with the point mutation; source: bacterial expression vector (pBAD), purified recombinant protein
T3 sequence (looked up): T2 sequence (looked up) with N327A

[4] = molecular target: T4, ODC-Y331S (Clover fusion protein) (human, UniProt P11926 1-461, Y331S)
T4 construct: human ornithine decarboxylase (hODC1) with Y331S; As m5 with the point mutation; source: bacterial expression vector (pBAD), purified recombinant protein
T4 sequence (looked up): T2 sequence (looked up) with Y331S

B1: antizyme-mRuby2 (antizyme with a C-terminal mRuby2 tag) (natural protein)
chain: not shown
notes: human antizyme 1 (OAZ1), codon-optimized synthetic gene; An HRV 3C protease site lies between antizyme and mRuby2 (used for the cleavage control); also called AZ-mRuby2; AZ; source: bacterial expression vector (pBAD), gene codon optimized for E. coli, purified recombinant protein; not shown: mRuby2, C-terminal, kept
A Kd [1] of 22 nM, a Kd [2] of 508 nM and a Kd [3] of 192 nM were found for B1 in this work. It also gave a Kd [4] of 277 nM.

Source: publication PMC6420652, “Developing a novel FRET assay, targeting the binding between Antizyme-AZIN” (Scientific Reports, 2019)
